According to patent publication US20200317791A1:

Columns and labels:
[1] = target: T1, HLA-Cw6/ADAMTSL5-Abu on rhHLA-Cw6 expressing cells loaded with ADAM-Abu peptide (human), P10321
[2] = target: T1, HLA-Cw6/ADAMTSL5-Abu on rhHLA-Cw6 …; experiment: cell-based or functional assay

Row | IC50 (read off the curve) [1] [µg/mL] | IL-2 % Inhibition (8.5 nM mAb), HLA-Cw6-00290 [2] [%] | IL-2 % Inhibition (8.5 nM mAb), HLA-Cw6-00254 [2] [%] | Binder
1 | 0.2 | 86 |  | CW6B238 (antibody, V domains shown) VH: QVTLKESGPVLVKPTETLTLTCTVSGFSLNNARMGVSWIRQPPGKALEWLAHMFSSDEKFYRTSLKSRLTISKDTSKSQVVLTMTNMDPVDTATYYCARISLYSSGHDTFDLWGQGTMVTVSS VL: AIQMTQSPSSLSASVGDRVTITCRASQDIRNTLGWYQQKPGKAPNLLIYAASSLQSGVPSRFSGSGSGTDFTLTISSLQPEDFATYYCLQDYDYPLTFGGGTKVEIK
2 |  | 59 |  | CW6B237 (antibody, V domains shown) VH: QVTLKESGPVLVKPTETLTLTCTVSGFSLSNARMGVSWIRQPPGKALEWLAHIFSHDEKFYSTFLKSRLTISKDTSKSQVVLMMTNMDPVDTATYYCARIILSSSGHDAFDIWGQGTMVTVSS VL: AIQMTQSPSSLSASVGDRVTITCRASQDIRHNLGWYQQKPGKAPNLLIYAASSLQSGVPSRFSGSGSGTDFILTISSLQPEDFATFFCLQDYIYPLTFGGGTKVEIK
3 | 0.2 | 91 |  | CW6B233 (antibody, V domains shown) VH: QVQLQESGPGLVKPSETLSLTCTVSGNSIRSYYWSWIRQPAGKGLEWIGRIYISGNTNYNPSLKSRVTMSIDTSKNQFSLKLSSVTAADTAVYYCARLSGIDAFDIWGQGTMVTVSS VL: DIQMTQSPSSLSASVGDRVTITCQASQDITNYLNWYQQKPGKAPKLLIYDASNLETGVPSRFSGSGSGTDFTFTISSLQPEDFATYYCQQYDNLPITFGQGTRLEIK
4 | 0.2 | 93 |  | CW6B230 (antibody, V domains shown) VH: QVQLQESGPGLVKPSETLSLTCTVSGNSISNYYWSWIRQPAGKGLEWIGRIYITGNTNYNPSLKSRVTMSLDTSKNQFSLKLSSVTAADTAVYYCARLSGIDAFDIWGQGTMVTVSS VL: DIQMTQSPSTLSASVGDRVTFTCQASQDITKYLNWYQQKPGKAPKLLIYDASNLETGVPSRFSGSGSGTDFTFTISSLQPEDFATYYCQQYDDLPITFGQGTRLEIK

Second part, the binder before the results:

Row | Binder | IC50 (read off the curve) [1] [µg/mL] | IL-2 % Inhibition (8.5 nM mAb), HLA-Cw6-00290 [2] [%] | IL-2 % Inhibition (8.5 nM mAb), HLA-Cw6-00254 [2] [%]
5 | CW6B228 (antibody, V domains shown) VH: QVQLQESGPGLVKPSETLSLTCTVSGNSIRSYYWSWIRQPAGKGLEWIGRIYISGNTNYNPSLKSRVTMSIDTSKNQFSLKLSSVTAADTAVYYCARLSGIDAFDIWGQGTMVTVSS VL: DIQMTQSPSSLSASVGDRVTITCQASQDINNYLNWYQQKPGKAPKLLIYDASSLETGVPSRFSGSGSGTDFTFTISSLQPEDFATYYCQQYDDLPITFGQGTRLEIK |  | 100 | 
6 | CW6B229 (antibody, V domains shown) VH: QVQLQESGPGLVKPSETLSLTCTVSGNSIRSYYWSWIRQPAGKGLEWIGRIYISGNTNYNPSLKSRVTMSIDTSKNQFSLKLSSVTAADTAVFYCARLSGIDAFDIWGQGTMVTVSS VL: DIQMTQSPSSLSASVGDRVTITCQASQDISNYLNWYQQKPGKAPKLLIYDASNLETGVPSRFSGSGSGTDFTFTISSLQPEDFATYYCQQYDNLPITFGQGTRLEIK | 0.2 | 86 | 
7 | CW6B130 (antibody, V domains shown) VH: QLQLQESGPGLVKPSETLSLTCTVSGASISSINYYWGWIRQPPGKGLEWIGSFYYSGNTYYNPSLKSRVTISVDTSKNYFSLKLNSVTAADTAVYYCAREYYDSSGYYPFEPWGQGTLVTVSS VL: SYVLTQPPSVSVAPGQTARITCGGDNIGSESVHWYQQKPGQAPVLVVYDDTDRPSGIPERFSGSKSGTTATLTISWVEAGDEADYYCQVWDSSSDHVVFGGGTKLTVL | 0.03 | 100 | 100
8 | CW6B175 (antibody, V domains shown) VH: EVQLVESGGGLVQPGGSLRLSCAASGFTFTNYWMTWVRQAPGKGLEWVANIKQSGSEKYYVDSVKGRFTISRDNAKNSLYLQMNSLRAEDTAVYYCARTLYEWELEPFDYWGQGTLVTVSS VL: SYVLTQPPSVSVAPGQTARITCGGNRIGSKSVHWYQQKPGQAPVLVVFDDSDRPSGIPERFSGSNSGITATLTISRVEAGDEADYYCQVWDSSNDHVVFGGGTKLTVL | 0.2 | 96 | 85
9 | CW6B188 (antibody, V domains shown) VH: EVQLVESGGGLVQPGGSLRLSCAASGFTFTNYWMTWVRQAPGKGLEWVANIKQSGNEKYYVDSVKGRFTISRDNAKNSLYLQMNSLRAEDTAVYYCARTLYEWELEPFDYWGQGTLVTVSS VL: SYVLTQPPSVSVAPGQTARITCGGNRIGSKNLHWYQQKPGQAPVLVVYDDSDRPSGIPERFSGSNSGSTATLTISRVEAGDEADYYCQVWDSSRDHVVFGGGTKLTVL |  |  | 9
